# Target: the molecule itself
# Test: non-reduced SDS-PAGE; SEC-purified denatured monomeric MB109 refolded by rapid dilution (CHAPS, NaCl, EDTA, GSH/GSSG, Tris-HCl, 4°C, 7 days); supernatants run on non-reduced 12% SDS-PAGE; disulfide-linked dimer
protein,measurement,value
"MB109 (E. coli-derived mature domain of human bone morphogenetic protein-9, refolded functional dimer) (ligand, engineered first methionine (translational start) directly before Ser320; mature domain of human BMP-9, Ser320-Arg429 (110 amino acids) of the 429-residue polypeptide; Disulfide-linked homodimer of the mature domain; pET21a between NdeI and XhoI with a 3' stop codon; also called hBMP-9 mature domain; human BMP-9) MSAGAGSHCQKTSLRVNFEDIGWDSWIIAPKEYEAYECKGGCFFPLADDVTPTKHAIVQTLVHLKFPTKVGKACCVPTKLSPISVLYKDDMGVPTLKYHYEGMSVAECGCR",stoichiometry N,2

# From article PMC3936849, “MB109 as bioactive human bone morphogenetic protein-9 refolded and purified from E. coli inclusion bodies” (Microbial Cell Factories, 2014)
